Positions count from the first letter of the chain named.
T1: human TSLPR on Ba/F3-hTSLPR-hIL7Ra cells (human, UniProt Q9HC73 23-371)
T1 sequence (looked up): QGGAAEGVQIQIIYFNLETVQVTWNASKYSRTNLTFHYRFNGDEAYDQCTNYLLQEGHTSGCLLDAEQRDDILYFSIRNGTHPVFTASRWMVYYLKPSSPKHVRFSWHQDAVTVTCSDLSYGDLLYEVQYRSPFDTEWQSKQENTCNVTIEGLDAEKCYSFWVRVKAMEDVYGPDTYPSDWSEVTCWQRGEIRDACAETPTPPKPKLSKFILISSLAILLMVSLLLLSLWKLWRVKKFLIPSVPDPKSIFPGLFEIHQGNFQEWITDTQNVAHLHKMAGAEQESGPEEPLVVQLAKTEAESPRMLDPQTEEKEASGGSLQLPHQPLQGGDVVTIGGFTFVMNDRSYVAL

T2: hTSLPR-ECTO-His (human)
T2 chain: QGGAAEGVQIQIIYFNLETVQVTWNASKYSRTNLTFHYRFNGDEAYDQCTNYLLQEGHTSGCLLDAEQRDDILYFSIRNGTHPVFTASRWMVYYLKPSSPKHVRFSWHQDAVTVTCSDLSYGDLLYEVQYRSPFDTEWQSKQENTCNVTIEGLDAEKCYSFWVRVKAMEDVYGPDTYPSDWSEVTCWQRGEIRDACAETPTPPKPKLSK

B1: mouse antibody 54C11 (antibody, mouse IgG2a, V domains shown)
VH: QVQLQQSGPEVVRPGVSVKISCKGSGFTFTDYAIHWVRQSHAKSLEWIGIIRPSNGNTNCDQKFKDKATMTVDKSSSTAYLDLARLTSEDSAIYYCSRSRVWGGSLAYWGQGTLVTVSA
VL: DIVMTQSQKFMSTSVGDRVSVTCKASQNVGTNIAWYQQKPGQSPEALIYSASYRYSGVPDRFTGSGSGTDFTLTITNVQSEDLAEYFCQQYKSYPWTFGGGTKLEIKR
notes: Mouse IgG2a/kappa from hybridoma; also called m54C11; LB55.54C11.3G11
B2: mouse antibody 4G8 (antibody, mouse IgG1, V domains shown)
VH: QVQLKQSGPGLVQPSQSLSITCTVSGFSLTIYGLHWVRQSPGKGLEWLGVIWRGGSTDYNAAFMSRLRITKDNSKSQVFFKMDSLQADDTAIYYCAKPYYDYDGNWYFDVWGAGTTVTVSS
VL: DIVMTQSQKFMSTSVGDRVSVTCKASQNVGTNVAWYQKKSGQSPKPLIYSASSHCSEVPDRFTGSGSGTDFTLTINNVQSEDLAEYFCQQYNRYPLTFGTGTKLEVRR
notes: Mouse IgG1/kappa from hybridoma; also called m4G8; LB55.4G8.2A6
B3: mouse anti human TSLPR antibody 13H5 (antibody, mouse IgG1, V domains shown)
VH: QVLLKQSGPSLVQPSQSLSITCTVSGFSLSRYGVHWVRQSPGKGLEWLGVIWRSGSTDYNAAFMSRLSITQDNSKSQVFFNMNSLQSDDSAIYYCAKKAFYVMDYWGQGTSVTVSS
VL: DIQMTQTTSSLSASLGDRVTISCRASQDISIYLNWYQQKPDGTVKLLIYYTSRLHSGVPSRFSGSGSGTNFSLTITNLEEEDIATYFCQQGNTLPWTFGGGTKLEIKR
notes: Mouse IgG1/kappa purified from hybridoma supernatant; also called m13H5; LB55.13H5.2C3
B4: mouse antibody 49A5 (antibody, mouse IgG1, V domains shown)
VH: QVQLKQSGPGLVQPSQSLSITCTVSGFSLTTYGVHWVRQSPGKGLEWLGVIWRGGNTAYNPAFMSRLSITKDNSKSQVFFKMNSLQADDTAIYHCAKKSYYGYHAMGYWGQGTSVTVSS
VL: B3 VL with S22N, I31N, K39N, N70D, F71Y, T76S, E80Q, G91A
notes: Mouse IgG1/kappa from hybridoma; also called m49A5; LB55.49A5.2F9
B5: mouse antibody 61C11 (antibody, mouse IgG2a, V domains shown)
VH: QAYLQQSGAELVRSGASVKMSCKASGYTFTSYNLHWIKLTPGQGLEWIGYIYPGLNGTLYNQKFRGKATLTADTSSSTAYMQISSLTSEDSAVYFCARSDYGKAWFAYWGRGTLVTVSA
VL: DILLTQSPAILSVSPGERVSFSCRASQSIATKIHWYQQRTDHSPRLLIQLGSESISGIPSRFSGSGSGTDFTFTINSVESEDIAVYYCQQSNRYPYTFGGGTKLEVKR
notes: Mouse IgG2a/kappa from hybridoma; also called m61C11; LB55.61C11.2B1
B6: mouse antibody 54A11 (antibody, mouse IgG2a, V domains shown)
VH: EVQLQQSGPELVKPRASVKISCKASGYSFTGYYIHWVKQSHVKSLEWIGRINPYNGATIYNPNFKDKASLTVDKSSSTAFMEVHSLTSEDSAVYYCARSYGYVNYFDYWGQGTTLTVSS
VL: EIVLTQSPATLSVTPGDSVSLSCRASQSISNNLHWYHQKSHESPRLLIKFGFQSISGIPSRFSGSGSGTDFTLSINSVETEDFGMYFCQQTNSWLTFGAGTKLELKR
notes: Mouse IgG2a/kappa from hybridoma; also called m54A11; LB55.54A11.3D6
B7: mouse anti-human TSLPR antibody 70E8 (antibody, mouse IgG1, V domains shown)
VH: DVQLQESGPDLVKPSQSLSLTCTVTNYSITSGYSWPWIRQFPGNKLEWLGYIHSSGRTNYNPSLKSRISITRDTSKNQFFLQLNSVTPEDTATYYCARSQLGLVFFAYWGQGTLVTVSA
VL: DIVMTQSQKFMSTSVGDRVSVTCKASQSVGANVAWYQQIPGHSPKVLIYSASYRFSGVPDRFTGSGSGTDFTLTISNVQSEDLAEYFCQQYNSYPYTFGGGTKLEIRR
notes: Mouse IgG1/kappa from hybridoma; also called m70E8; LB55.70E8.1A8
B8: rat anti-human TSLPR antibody 18B3 (antibody, V domains shown)
VH: EVQLVESGGGLVQPGRSLRLSCVASGFTFNNYWMTWVRQAPGKGLEWVASITDTSGRTYYPDSVKGRFTISRDHAKSTLYLQMNSLRPEDTATYYCTKTLGGIPRDWGQGVMVTVSS
VL: NIQLTQSPSLLSASVGDRVTLSCKGSQNINNYLAWYQQKLGEAPKLLIFKTNILQTGIPLRFSGSGSGTDYTLTISSLHCEDLATYYCYQFNNGFTFGPGTKLELKR
notes: Rat monoclonal antibody; also called r18B3; LB1.18B3
B9: chimeric anti-human TSLPR 13H5 antibody (antibody, V domains shown)
VH: B3 VH
VL: B3 VL
notes: also called chim 13H5; Chimeric 13H5; not shown: human IgG1 heavy chain constant region (CH1-hinge-CH2-CH3); human kappa light chain constant domain (CL domain)

target: T1, human TSLPR on Ba/F3-hTSLPR-hIL7Ra cells; test: cell-based or functional assay

Binder | Avg IC50, Ba/F3-huTSLPR proliferation [µg/mL] | IC50 Assay I, Ba/F3-huTSLPR proliferation [µg/mL] | IC50 Assay II, Ba/F3-huTSLPR proliferation [µg/mL] | IC50 Assay III, Ba/F3-huTSLPR proliferation [µg/mL] | Avg IC50, inhibition of hTSLP-induced proliferation of Ba/F3-huTSLPR cells [µg/mL]
B1 | 0.0203 | 0.0195 | 0.0188 | 0.0227 | –
B2 | 0.262 | 0.292 | 0.202 | 0.291 | –
B3 | – | 0.0127 | 0.014 | 0.0097 | 0.0121
B4 | 0.127 | 0.143 | 0.108 | 0.131 | –
B5 | 0.162 | 0.174 | 0.139 | 0.172 | –
B6 | 0.178 | 0.211 | 0.132 | 0.191 | –
B7 | 0.0446 | 0.0442 | 0.0489 | 0.0407 | –
B8 | 0.304 | 0.318 | 0.259 | 0.335 | –

target: cynomolgus TSLPR on Ba/F3-cTSLPR-cIL7Ra cells (cynomolgus monkey); test: cell-based or functional assay

Binder | Avg IC50, Ba/F3-cyTSLPR proliferation [µg/mL] | IC50 Assay I, Ba/F3-cyTSLPR proliferation [µg/mL] | IC50 Assay II, Ba/F3-cyTSLPR proliferation [µg/mL] | IC50 Assay III, Ba/F3-cyTSLPR proliferation [µg/mL]
B3 | 0.0129 | 0.0104 | 0.0148 | 0.0134
B4 | 0.231 | 0.202 | 0.246 | 0.246
B5 | > 10 | ~13 | ~18 | ~15
B6 | 0.138 | 0.125 | 0.153 | 0.137
B7 | > 50 | ~55 | ~90 | ~90

Target: T2, hTSLPR-ECTO-His
Test: ELISA, plate coated with TSLPR 50 ng/well, HRP goat anti-mouse detection
Procedure: (§1) The ELISA measures the EC50 of certain mouse anti-TSLPR antibodies generated according to Example 2 are reported on Table 4. The antibodies were purified from hybridoma supernatants, and his-hTSLPR or cTSLPR-Ig was used to determine binding affinity.
(§2) Coating of plates was performed as follows: TSLPR (50 ng per well) in PBS was incubated at 4° C. overnight. Plates were washed with 1 cycle (3 washes/cycle) on a Molecular Devices plate washer. Antibody was then titrated across a row of eight wells in the range of 3000 ng/mL to […] using serial 3-fold dilutions and incubated for 60 min. at 25° C. Plates were washed for 1 cycle, HRP-goat anti-mouse) (1:2,000 dilution) was added at 0.05 mL/well and incubated for 60 min at 25° C. Plates were washed for 1 cycles. ABTS substrate was added at 0.05 mL/well and incubated 10 min at 25 C. Plates read at) or A_{405 nm}. [0223]

Binder | EC50 [µg/mL]
B1 | 0.0059
B2 | 0.0059
B4 | 0.0417
B5 | 0.026
B6 | 0.0458

target: T3, cTSLPR-Ig (cynomolgus monkey); test: as above
T3 construct: also called cyTSLP R-hIg P749; Mam-Trans[FlagPreProTrypsin]DELTA2_NHP[Ig]
Procedure: as §1, §2

Binder | EC50 [µg/mL]
B1 | 0.153
B2 | 0.081
B3 | > 0.001
B4 | 0.0059
B5 | 0.26
B6 | 0.0075
B7 | 0.958

target: T3, cTSLPR-Ig; test: SPR BIAcore T100, cyTSLPR-hIg amine-coupled on CM5, antibody as analyte, bivalent analyte model, n = 2
Procedure: (§3) The kinetic binding activities of the mouse anti human TSLPR antibody 13H5, chimeric anti-human TSLPR 13H5 antibody, rat anti-human TSLPR antibody 18B3, and mouse anti-human TSLPR antibody 70E8 against both human (hu) and cynomolgus monkey (cyno) TSLPR were measured by surface plasmon resonance using a BIAcore T100 system (BIAcore AB, Upsalla, Sweden). Approximately 70RUs of […] were immobilized via amine coupling chemistry onto a Sensor Chip CM5 (Research grade, BR-1006-68). HBS-EP buffer (BR-1006-69) was used as the running buffer with a flow rate of 30 μL/min. Antibodies at varying concentrations ranging from 0.01 to 600 nM were injected over the immobilized hu or cyno TSLP surfaces at a flow rate of 30 μL/min. Following each injection cycle the CM5 chip surface was regenerated using a series of solutions (10 mM Glycine pH 1.5 and 25 mM NaOH respectively) at a flow rate of 75 μL/min.
(§4) Background subtraction binding sensorgrams were used for analyzing the rate constant of association (ka) and dissociation (kd), and the equilibrium dissociation constant KD. The resulting data sets shown in Table 5 were fitted with a bivalent analyte model using the BlAevaluation software (version 1.0).

Binder | Kd [nM] | koff [s⁻¹] | kon [M⁻¹ s⁻¹]
B9 | 0.374 | 0.000172 | 460000
B8 | 10.1 | 0.0078 | 770000

target: T3, cTSLPR-Ig; test: SPR BIAcore T100, cyTSLPR-hIg amine-coupled on CM5, antibody as analyte, bivalent analyte model, n = 6
Procedure: as §3, §4

Binder | Kd [nM] | koff [s⁻¹] | kon [M⁻¹ s⁻¹]
B3 | 0.089 | 7.1e-05 | 800000

Reference: patent US20110020369A1 (SCHERING, published 2011)
